Measured values taken from the supplement of paper PMC10567573.

B1: DVL3 (parent)
chain: FCADNPSELPPPMERTGGIGDSRP

Variants of: B1
Assay: protein stability index of a GFP-peptide fusion (GPS, HEK-293T) (PSI 1-6); higher = more stable
Details: c terminus: a fixed tail appended
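Also: lentivirally expressed fusions sorted by FACS into six bins by GFP to DsRed ratio, PSI derived from sequencing read proportions per bin multiplied by bin number.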

Protein stability index: each site, then its substitutions
A3: K 4.34, M 4.48, N 4.79, P 4.17, Q 3.45, S 4.81, T 4.29, V 4.78, W 3.64, Y 4.49
D4: A 4.19, E 5, F 3.08, G 4.37, H 4.27, I 3.71, K 2.85, L 3.83, M 3.26, N 3.96, Q 3.36, R 4.36, S 4.25, T 4.29, V 3.79, W 2.06, Y 3.98
N5: A 4.31, D 4.92, E 4.8, F 2.65, G 4.46, H 3.81, I 4.21, K 4.29, L 3.32, M 4.57, Q 4.45, S 4.78, T 4.42, V 4.58, W 3.23, Y 3.62
P6: A 4.71, D 4.03, E 4.64, F 4.38, G 3.85, H 4.08, I 3.73, K 4.33, L 3.88, M 3.8, N 4.61, Q 4.95, R 4.19, S 3.95, T 3.99, V 4.27, W 2.33, Y 4.27
S7: A 4.57, C 3.85, D 5.04, E 5.11, F 4.24, G 4.01, I 4.19, K 4.98, L 4.57, M 4.3, N 4.45, R 3.58, T 4.22, V 4.14, Y 3.81
E8: A 4.36, C 4.06, D 4.39, F 2.6, G 4.37, H 3.95, I 3.88, K 3.47, L 3.67, M 3.49, N 4.26, P 4.14, Q 2.77, R 3.05, S 4.63, T 4.02, W 2.03, Y 3.25
L9: C 4.79, E 5.34, F 4.44, H 4.66, I 4.53, K 4.66, M 4.34, N 5.1, Q 4.16, R 4.32, S 4.99, V 4.82, Y 4.11
P10: A 4.29, C 3.81, D 4.81, E 2.94, F 3.41, G 4.13, H 4.3, I 3.81, K 4.37, L 4.32, M 4.54, N 4.54, Q 4.27, R 4.08, S 4.38, T 4.61, V 4.49, W 3.13, Y 3.74
P11: A 5.1, C 4.33, D 4.74, E 4.05, F 3.83, G 4.16, H 4.43, I 4.54, L 4.64, M 4.45, N 4.26, Q 4.54, R 3.91, S 4.58, T 5.12, V 3.94, W 3.64, Y 4.23
P12: A 5.55, C 4.07, D 5.2, E 4.89, F 3.41, G 4.39, H 4.61, I 3.76, K 4.69, L 4.63, M 4.19, N 4.69, Q 4.75, R 3.93, S 4.07, T 3.99, V 4.62, W 1.75, Y 3.63
M13: A 5.31, C 4.22, D 4.98, E 5.18, F 4.6, G 4.67, H 4.77, I 4.27, K 5.04, L 4.98, N 4.77, Q 5, R 4.2, S 4.25, T 4.57, V 4.89, W 2.97, Y 4.07
E14: A 4.24, C 3.68, D 4.55, F 3.45, G 3.84, H 4.08, I 3.98, K 4.07, L 3.05, M 4.37, N 4.35, P 4.27, Q 4.1, R 3.78, S 4.31, T 4.1, W 1.93, Y 3.13
R15: A 5.48, C 4.69, D 4.76, E 5.37, F 4.1, G 4.56, H 4.97, I 4.56, K 4.45, L 4.51, M 4.25, N 4.79, P 4.99, Q 4.37, S 4.82, T 4.55, V 4.5, W 3.77, Y 4.39
T16: A 4.6, C 4.07, D 5.18, E 4.45, F 3.95, G 4.45, H 4.33, I 3.98, K 4.29, L 3.8, M 4.11, N 4.7, P 3.87, Q 5, R 4.5, S 4.25, V 4.02, W 2.55, Y 3.96
G17: A 4.51, D 4.61, E 4.54, F 3.79, H 4.69, I 4.09, K 4.89, L 4.12, M 4.48, N 4.74, P 4.85, Q 4.73, R 4.62, S 4.3, T 4.48, V 4.12, Y 3.91
G18: A 4.49, C 4.57, D 4.77, E 5.06, F 4.03, H 4.34, I 4.05, K 4.88, L 4.34, M 4.17, N 4.89, P 4.04, Q 4.81, R 4.34, S 4.64, T 4.47, V 4, W 3.41, Y 3.38
I19: A 5.33, C 4.94, D 4.94, E 5.77, F 4.37, H 5.16, K 5.59, M 4.8, N 4.82, Q 4.65, R 4.74, S 5.22, T 4.31, V 5.09, W 3.51, Y 4.35
G20: A 4.68, C 4.12, D 4.51, E 4.53, F 3.78, H 4.18, I 4.48, K 4.32, L 3.76, M 4.18, N 4.54, P 5.08, Q 4.79, R 3.83, S 4.4, T 4.66, V 4.49, Y 3.45
D21: A 4.36, C 3.98, E 5.27, F 3.89, G 4.36, H 4.37, I 3.77, K 4.21, L 3.48, M 3.67, N 4.11, P 4.16, Q 4.58, R 3.71, S 4.35, T 4.52, W 2.97, Y 3.92
S22: A 4.61, C 3.55, D 4.88, E 5.23, F 3.28, G 4, H 4.34, I 4, K 4.77
